Several values for one entry are separate records, joined by “and”; a condition that tells them apart may be missing. Equal entries are not always repeated.
Assays:
[1] = molecular target: HML2 CA^rec (consensus HML2 capsid protein, P1-Q246) (human endogenous retrovirus HML2 (HERV-K), consensus); experiment: cryo-EM structure; single-particle reconstruction of particles assembled in vitro at 1.4 M NaCl, 10 mg/mL, 4 °C, 1 h; T = 1, D5, D6 and T = 3 shells
[2] = molecular target: HML2 CA^rec C-terminal domain (CA^rec-CTD, P156-Q246) (human endogenous retrovirus HML2 (HERV-K), consensus); experiment: AUC; sedimentation equilibrium, 20 mM Tris-HCl pH 8, 150 mM NaCl, 0.5 mM TCEP; 50-200 µM protein, three speeds; global fit to a monomer-dimer equilibrium (monomer to dimer); MSTAR analysis at 200 µM
[3] = molecular target: HML2 CA^rec C-terminal domain (CA^rec-CTD, P156-Q246) (human endogenous retrovirus HML2 (HERV-K), consensus); experiment: solution NMR structure (inter-molecular filtered NOEs); 298 K, 20 mM Tris-HCl, 50 mM NaCl, 0.5 mM TCEP, pH 7.0; asymmetrically labelled dimer from equimolar unlabelled and 13C/15N-labelled CA^rec-CTD, 2 mM total protein

Substance | stoichiometry N [1] | Ka [2] | stoichiometry N [3]
HML2 CA^rec (consensus HML2 capsid protein, P1-Q246) (natural protein) | 5 and 6 | – | –
HML2 CA^rec C-terminal domain (CA^rec-CTD, P156-Q246) (domain or fragment) | – | 3600 M⁻¹ | 2

Reference: PMC6925226
